Data taken from the supplement of paper PMC9170038.

System: K4 kissing-loop RNA reporter
Assay: apparent KD of K4 kissing-loop reporter; higher = weaker reporter binding
Settings: Eterna round: R107
Experimental: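 RNA-MaP round R107: designed RNA switches with theophylline, tryptophan, arginine or FMN aptamers are transcribed on-chip within common flanks. They are titrated with a labelled K4 kissing-loop RNA reporter in RNA-MaP buffer (100 mM Tris pH 7.5, 80 mM KCl, 4 mM MgCl2), without ligand or with the indicated ligand. Median apparent KD per design.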

[1] = input ligand: theophylline 20 uM
[2] = input ligand: tryptophan 2.4 mM
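Further: bound reporter read as fluorescence of individual clusters on recovered sequencing chips by microscopy, with normalized cluster intensities fitted with a binding model.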

| Sequence | apparent KD of K4 kissing-loop reporter (input ligand: FMN 200 uM) [µM] | apparent KD of K4 kissing-loop reporter (input ligand: arginine 13.2 mM) [µM] | apparent KD of K4 kissing-loop reporter (input ligand: none) [µM] | apparent KD of K4 kissing-loop reporter [1] [µM] | apparent KD of K4 kissing-loop reporter [2] [µM] |
| --- | --- | --- | --- | --- | --- |
| UGUAUGUGUCAGCGAGUGAUGUUCGACGAUACCAGACUCGAUAGAGUCCCUUGGCAGCGUAAUGCAUGCCAACUGGCACAUACUA [#SwitchBubble 12 #K4Early] | 0.745 | 0.651 | 0.837 | 0.608 | 0.597 |
| UGUCAUUGGUCGGCCGCCACUAAAAUAAAAGAGUGAUGUUCUUAAAAGACGGACAAAGUCUGUCAUAGGACCGGGACCGAUGACU [TrypBS 23 #SwitchBubble #StaticStem] | 0.547 | 0.425 | 0.529 | 0.436 | 0.202 |
| UGUCAUUGGUCGGCCGCCACUAGACGGAUCAUAAGAUCUGUCAAUAAGAGUGAUGUUCUAAAUAAUAGGACCGGGACCGAUGACU [TrypBS 27 #SwitchBubble #StaticStem] | 0.988 | 0.653 | 0.907 | 0.681 | 0.647 |
| UGUCAUUGGUCGGCCGCCACUAGGACCGGGUUUUACCUAGUGAUGUUAGUAUGAACGGCCGCCACUAGGACCGGGACCGAUGACU [KL-SSTryp-B25 #DoubleAptamer] | 0.343 | 0.195 | 0.322 | 0.442 | 0.113 |
| UGUCAUUGGUCGGCCGCCACUCCGUAACGAGUGAUGUUCUAAAAGACGGAUCGAAAGAUCUGUCGGAGGACCGGGACCGAUGACU [FiskerMod 7 - Jieux - Same State - Tryptophan B] | 0.725 | 0.149 | 0.448 | 0.199 | 0.9 |
| UGUCAUUGGUCGGCCGCCACUUCAUAGAGAGUGAUGUUCUUUAAGACGGAUCGAAAGAUCUGUCGAAGGACCGGGACCGAUGACU [FiskerMod 10 - Jieux - Same State - Tryptophan B] | 0.924 | 0.527 | 1.39 | 0.777 | 0.262 |
| UGUCAUUGGUCGGCCGCCACUUCAUGUAGAGUGAUGUUCUGUAGGACGGAUCGAAAGAUCUGUCGAAGGACCGGGACCGAUGACU [FiskerMod 14 - Jieux - Same State - Tryptophan B] | 0.818 | 0.725 | 1.18 | 0.727 | 0.272 |
| UGUCGGUGAAGAAUGUUAGUGAUGUUGGCACGAGGACCGGUACGGCCGCCACUCGGUAAUCAUCGCAAUUAUCGAUGGCGUAGCC [theeternabot_exclusion_KL_Trp_A_3] | 0.183 | 0.17 | 0.147 | 0.166 | 0.182 |
